Residue numbers refer to the chain shown, from its start.
B1: BcUGT4 (Iris domestica) (protein)
chain: MQLKESVVLFPSVGMGHLIPMVELAKLFIGHGFSVTIVVVEPPFDVSTTNHPFISRVSSEYPSISFHRLPKVVPPATFRPPVIVLFETLRLACPQLLDFLKTIRSTSNVRALVLDMFCTSALDVADELGLPSYFFFASGASTLAAFLLFPTLQSKLDGNFRDLGSSPVHFPGLPPVPASDLPTQMQERGEANDGIMFHFKRLPRAKGIMINTPEWLEKRAVEALANGECLPDRTMPPVYCIGPLVASGSNGGGGGEGERHECLAWLDAQPKKSVVFLCFGSMGSFSAEQVKEMAVGLERSGQRFLWVVRSPPLKDDPAARPGARPEPDLEALLPEGFLERTKGKGMVVKSWAPQAAVLAHGSVGGFVSHCGWNSTLEAVSSGVPIIAWPLYAEQRMNKVFLVEEAKLAVAMEGYNKDVVSAEEVEKKIRWLMESEDGKALKDRAVEAKEKAVAAWKQEGSSFLAWLELVRAVRKEA
notes: full ORF in pCold-TF, E. coli, His-tag + trigger factor fusion (~105 kDa; UGT ~53 kDa), Ni-NTA
B2: BcUGT8 (Iris domestica) (protein)
chain: MEFTQSVILYPSLGMGHLIPTLELAKLFIDQGFSVTIVVIDSPPSDTSSTMDSFISRASSAYPSLSFHRLPKVAPPASKLPMVFLSETVRLANASLLDFLSSKKSTSDIRAVVLDMFCSASLDIVEELHLPSYFFFSSSASALAACLFFPTLQSQLAGSFRDLGSSPVHFPGLPPIPASDLPADVQVRGESYDAALAHFVRLPRADGIMINTFESLEKRAVRALVDGVCVPGRATPPVYCIGPLIADGSDGGERHECLAWLDAQPERSVVFLCFGSMGSFSTEQLKETAGGLERSGQRFLWVVRSPPSDPAYPFGPRAETELEALLPEGFLERTRERGMVLESWAPQAAVLAHRSVGGFVSHCGWNSTLEAVCSGVPMLGWPLYAEQRMNRVSLVEEAKVAVAMEGCHNGLVSADEVETKIRRLMESRALGERMAATKERAVAARTEGGESTLALLELVRALRKATPGTGA
notes: as for B1
B3: BcUGT1 (Iris domestica) (protein)
chain: MQLKESVVLFPSMGMGHIIPMVELAKLFIGHGFSVTIVDVEPPFDDSTTKGPFISRISSEYPSISFHRLPKVIPPATSRPPVFAFIETLRLACPHLLDFLKTIRSTTNVRALVLDMFCTPALDVADELGLPSYFFFSSSASILAAFLFFPILQDKLDGNFRDLGSSPIHFPGLPPVPASDLPTQMQERGEANDGIMFHFNSYPRATGIMINTLEWLEKRAIEVLANGECLPDRTMPPVYCIGPLVATGSNEGEGEGEGEKHECLAWLDAQPEKSVVFLCFGSMGSFSAEQVKEIAIGLERSGQRFLWVVRSPPLKDDPAARHGARPEPDLEALLPEGFLERTKEKGMVVKSWAPQAAVLAHGSVGGFVSHCGWNSTLEAVSSGVPIIAWPLYAEQRMNKVFLVEEAKLAVAMEGYNKDVVSAEEVEKKIRWLMESEDGKALKDRAVEAKEKAVAAWKQEGSSFLAWLELVRAVRKEA
notes: as for B1
B4: BcUGT2 (Iris domestica) (protein)
chain: B3 chain with E344G, N416D, A440V, L441M, W456R, K457M, E459D, F463S
B5: BcUGT5 (Iris domestica) (protein)
chain: MQLKESVVLFPSVGMGHLIPMVELAKLFIGHGFSVTIVVVEPPFDVSTTNHPFISRVSSEYPSISFHRLPKVIPPATSRPPVFAFIETLRLACPHLLDFLKTIRSTSNVRALVLDMFCTSALDVADELGLPSYFFFASGASTLAAFLLLPTLQSKLDGNFRDLGSSPVHFPGLPPVPASDLLIHVQERGEANDEIMFHFKRLPRAKGIMINTMEWLEKRAVEALANGECLPDRTMPPVYCIGPLVASGSNGGGGEGERHECLAWLDAQPEKSVVFLCFGSMGSFSAEQVKEMAVGLERSGQRFLWVVRSPPLKDDPAARPGARPEPDLEALLPEGFLERTKGKGMVVKSWAPQAAVLAHGSVGGFVSHCGWNSTLEAVSSGVPIIAWPLYAEQRMNKVFLVEEAKLAVAMEGYNKDVVSAEEVEKKIRWLMESEDGKALKDRAVEAKEKAVAAWKQEGSSSLAWLELVRAVRKEA
notes: as for B1
B6: BcUGT7 (Iris domestica) (protein)
chain: MQLKESVVLFPSVGMGHLIPMVELAKLFIGHGFSVTIVVVEPPFDASTTSGPFISRVSSEYPSISFHRLPKVVPPATSKPPMIVIYETLRLACPHLLDFLKTIRSTAKVRALVLDMFCTSALDVADELGLPSYFFFASGASALAAYLLLPTLQSKLDGNFRDLGSSPVHFPGVPPVPASDLLTHVQERGESNDGIMLHFKRFPRAKGIMINTPEWLEKRAVEALANGECLPDRTMPPVYCIGPLVANGSNGGEGGGERHECLAWLDAQPEKSVVFLCFGSLGSFSGEQLKEMAIGLERSGQLFLWVVRSPPLKDDPAARPGARPEPDLEALLPEGFLERTKGKGMVVKSWAPQAAVLAHGSVGGFVSHCGWNSTLEAVSSGVPIIAWPLYAEQRMNKVFLVEEAKVAVAMEGYDKDIVSAEEVEKKIRWLMESKDGKAMKDRAVEAKEKAVAAWKEDGSSSLAWLELERALRMGA
notes: as for B1

How the values were obtained:
HPLC glucosylation assay = substrate: COc1cc(-c2coc3cc(O)c(OC)c(O)c3c2=O)cc(O)c1OC; assay: HPLC glucosylation assay; format: biochemical, Iris domestica; settings: 2 mM UDP-glucose, 1 mM DTT, 50 mM PBS, pH 8.0, 30°C, 10 min
purified protein = substrate: COc1c(O)cc2occ(-c3ccc(O)cc3)c(=O)c2c1O; assay: purified protein; settings: 2 mM UDP-glucose, 1 mM DTT, 50 mM PBS, pH 8.0, 30°C, 10 min

Protein	Km (HPLC glucosylation assay) [µM]	kcat (HPLC glucosylation assay) [s⁻¹]	kcat/Km (HPLC glucosylation assay) [M⁻¹ s⁻¹]	Km (purified protein) [µM]	kcat (purified protein) [s⁻¹]	kcat/Km (purified protein) [M⁻¹ s⁻¹]
B1	190 ± 7	57.23 ± 18.21	301000	115 ± 23	155.18 ± 12.26	1.35e+06
B2	1423 ± 21	11.97 ± 1.31	8410			
B3	210 ± 13	58.88 ± 3.24	280000	592 ± 49	57.29 ± 4.94	96800
B4				392 ± 7	70.10 ± 9.86	179000
B5	121 ± 9	296.52 ± 11.8	2.45e+06	201 ± 15	116.03 ± 6.98	577000
B6	894 ± 11	17.73 ± 9.89	19800	1269 ± 9	15.86 ± 7.53	19800

From article PMC7900552, “Iris domestica (iso)flavone 7- and 3′-O-Glycosyltransferases Can Be Induced by CuCl2” (Frontiers in Plant Science, 2021)
